Experimental data published in patent publication US20140206628A1 (University of Washington, published 2014).
Read-outs that look alike come from different tables or passages of the source.

Experiments:
[1] = molecular target: T1, A/South Carolina/1/1918 (H1N1) hemagglutinin ectodomain, biotinylated (Influenza A virus A/South …); assay: yeast surface display titration
[2] = molecular target: T1, A/South Carolina/1/1918 (H1N1) …; assay: yeast surface display titration; remark: listed apart in the source

Binder | binding result [1] | binding result [2]
HB80.3_s4_E82 (designed binder) MASTRGSGRPWKFSENVAFEIALSFTNKDTPDRWAKVARYVRGRTPEEVKKHYE | binds | 
HB80.3_s4_E94 (designed binder) ASTRGSGRPWKFSENVAFELALYFTNKDTPDRWAKVARYVKGRTPEEVKKHYE | binds | 
HB36.4_s4_E11 (designed binder) MSNAMDGQQLNRLLLEWIGAWDPFGLGKDAYDVEADAVLKAVYETNSAFDLAMRIHWIYNFAFKRKIPFVHAQKLARRLLELKQAASSPLP |  | binds
